# Results as given in patent US20160272693A1 (ZEALAND PHARMA A S, published 2016).
# *1 amine or outer side, *2 acyl side, *3 side chain or, on linkers, in order; H or OH if unused. Bridges are numbered along the chain shown (N, C = ends). [ ]: non-standard residue; d: D form. The star is where a group is joined. C20 diacid = O=C(O)CCCCCCCCCCCCCCCCCCC(=O)*; γGlu = O=C(O)[C@H](CCC(=O)[*:2])N[*:1]; Hyp = O=C(O)[C@@H]1C[C@@H](O)CN1; NMeI = CC[C@H](C)[C@H](NC)C(=O)O; Sar = CNCC(=O)O
# T1: human amylin receptor 3 (hAMYR3), hCTR2 co-expressed with human receptor activity modifying protein 3 (hRAMP3) (human, UniProt P30988 25-474; O60896 24-148)
# T1 sequence (looked up) 1: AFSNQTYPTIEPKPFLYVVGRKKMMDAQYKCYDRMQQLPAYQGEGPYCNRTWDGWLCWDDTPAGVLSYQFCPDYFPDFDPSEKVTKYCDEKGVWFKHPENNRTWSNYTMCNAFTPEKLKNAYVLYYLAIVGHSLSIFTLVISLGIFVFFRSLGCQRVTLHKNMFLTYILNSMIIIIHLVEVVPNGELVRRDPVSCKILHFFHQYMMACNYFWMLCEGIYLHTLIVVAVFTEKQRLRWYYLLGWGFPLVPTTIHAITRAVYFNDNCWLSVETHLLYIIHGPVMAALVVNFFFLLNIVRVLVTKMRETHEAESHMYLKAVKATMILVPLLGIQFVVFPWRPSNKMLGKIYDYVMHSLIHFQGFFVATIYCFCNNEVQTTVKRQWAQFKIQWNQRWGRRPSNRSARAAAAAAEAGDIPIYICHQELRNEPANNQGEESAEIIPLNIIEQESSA
# T1 sequence (looked up) 2: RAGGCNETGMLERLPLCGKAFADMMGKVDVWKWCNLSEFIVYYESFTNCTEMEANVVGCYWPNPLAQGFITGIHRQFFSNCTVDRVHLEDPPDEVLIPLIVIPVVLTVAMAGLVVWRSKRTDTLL
# Target: T1, human amylin receptor 3 (hAMYR3), hCTR2 …
# Experiment: cell-based or functional assay
row,hAMYR3 EC50 (nM); cAMP induction,Binder
1,0.12 nM,{C20 diacid}-[γGlu]RCGTATCATERLAHFLNRSSF[Sar]A[NMeI]LSSTEVGSST[Hyp]-NH2 (disulfide 3-8; SMILES CC[C@H](C)[C@@H](C(=O)N[C@@H](CC(C)C)C(=O)N[C@@H](CO)C(=O)N[C@@H](CO)C(=O)N[C@H](C(=O)N[C@@H](CCC(=O)O)C(=O)N[C@H](C(=O)NCC(=O)N[C@@H](CO)C(=O)N[C@@H](CO)C(=O)N[C@H](C(=O)N1C[C@H](O)C[C@H]1C(N)=O)[C@@H](C)O)C(C)C)[C@@H](C)O)N(C)C(=O)[C@H](C)NC(=O)CN(C)C(=O)[C@H](Cc1ccccc1)NC(=O)[C@H](CO)NC(=O)[C@H](CO)NC(=O)[C@H](CCCNC(=N)N)NC(=O)[C@H](CC(N)=O)NC(=O)[C@H](CC(C)C)NC(=O)[C@H](Cc1ccccc1)NC(=O)[C@H](Cc1c[nH]cn1)NC(=O)[C@H](C)NC(=O)[C@H](CC(C)C)NC(=O)[C@H](CCCNC(=N)N)NC(=O)[C@H](CCC(=O)O)NC(=O)[C@@H](NC(=O)[C@H](C)NC(=O)[C@@H]1CSSC[C@H](NC(=O)[C@H](CCCNC(=N)N)NC(=O)CC[C@H](NC(=O)CCCCCCCCCCCCCCCCCCC(=O)O)C(=O)O)C(=O)NCC(=O)N[C@@H]([C@@H](C)O)C(=O)N[C@@H](C)C(=O)N[C@@H]([C@@H](C)O)C(=O)N1)[C@@H](C)O) [[19CD]-isoGlu-R-C( )-GTAT-C( )-ATERLAHFLNRSSF-Gly(Me)-A-Ile(Me)-LSSTEVGSST-Hyp-NH2 (Compd. 29)]
2,0.094 nM,{C20 diacid}-[γGlu]RCPTATCATDRLAHFLHRSSF[Sar]A[NMeI]LSSTDVGSNTP-NH2 (disulfide 3-8; SMILES CC[C@H](C)[C@@H](C(=O)N[C@@H](CC(C)C)C(=O)N[C@@H](CO)C(=O)N[C@@H](CO)C(=O)N[C@H](C(=O)N[C@@H](CC(=O)O)C(=O)N[C@H](C(=O)NCC(=O)N[C@@H](CO)C(=O)N[C@@H](CC(N)=O)C(=O)N[C@H](C(=O)N1CCC[C@H]1C(N)=O)[C@@H](C)O)C(C)C)[C@@H](C)O)N(C)C(=O)[C@H](C)NC(=O)CN(C)C(=O)[C@H](Cc1ccccc1)NC(=O)[C@H](CO)NC(=O)[C@H](CO)NC(=O)[C@H](CCCNC(=N)N)NC(=O)[C@H](Cc1c[nH]cn1)NC(=O)[C@H](CC(C)C)NC(=O)[C@H](Cc1ccccc1)NC(=O)[C@H](Cc1c[nH]cn1)NC(=O)[C@H](C)NC(=O)[C@H](CC(C)C)NC(=O)[C@H](CCCNC(=N)N)NC(=O)[C@H](CC(=O)O)NC(=O)[C@@H](NC(=O)[C@H](C)NC(=O)[C@@H]1CSSC[C@H](NC(=O)[C@H](CCCNC(=N)N)NC(=O)CC[C@H](NC(=O)CCCCCCCCCCCCCCCCCCC(=O)O)C(=O)O)C(=O)N2CCC[C@H]2C(=O)N[C@@H]([C@@H](C)O)C(=O)N[C@@H](C)C(=O)N[C@@H]([C@@H](C)O)C(=O)N1)[C@@H](C)O) [[19CD]-isoGlu-R-C( )-PTAT-C( )-ATDRLAHFLHRSSF-Gly(Me)-A-Ile(Me)-LSSTDVGSNTP-NH2 (Compd. 25)]
3,0.16 nM,{C20 diacid}-[γGlu]RCPTATCATDRLAHFLHRSSF[Sar]A[NMeI]LSSTDVGSDTP-NH2 (disulfide 3-8; SMILES CC[C@H](C)[C@@H](C(=O)N[C@@H](CC(C)C)C(=O)N[C@@H](CO)C(=O)N[C@@H](CO)C(=O)N[C@H](C(=O)N[C@@H](CC(=O)O)C(=O)N[C@H](C(=O)NCC(=O)N[C@@H](CO)C(=O)N[C@@H](CC(=O)O)C(=O)N[C@H](C(=O)N1CCC[C@H]1C(N)=O)[C@@H](C)O)C(C)C)[C@@H](C)O)N(C)C(=O)[C@H](C)NC(=O)CN(C)C(=O)[C@H](Cc1ccccc1)NC(=O)[C@H](CO)NC(=O)[C@H](CO)NC(=O)[C@H](CCCNC(=N)N)NC(=O)[C@H](Cc1c[nH]cn1)NC(=O)[C@H](CC(C)C)NC(=O)[C@H](Cc1ccccc1)NC(=O)[C@H](Cc1c[nH]cn1)NC(=O)[C@H](C)NC(=O)[C@H](CC(C)C)NC(=O)[C@H](CCCNC(=N)N)NC(=O)[C@H](CC(=O)O)NC(=O)[C@@H](NC(=O)[C@H](C)NC(=O)[C@@H]1CSSC[C@H](NC(=O)[C@H](CCCNC(=N)N)NC(=O)CC[C@H](NC(=O)CCCCCCCCCCCCCCCCCCC(=O)O)C(=O)O)C(=O)N2CCC[C@H]2C(=O)N[C@@H]([C@@H](C)O)C(=O)N[C@@H](C)C(=O)N[C@@H]([C@@H](C)O)C(=O)N1)[C@@H](C)O) [[19CD]-isoGlu-R-C( )-PTAT-C( )-ATDRLAHFLHRSSF-Gly(Me)-A-Ile(Me)-LSSTDVGSDTP-NH2 (Compd. 27)]
4,0.2 nM,{C20 diacid}-[γGlu]RCNTATCATQRLANFLHRSSF[Sar]A[NMeI]LSSTEVGSETP-NH2 (disulfide 3-8) [[19CD]-isoGlu-R-C( )-NTAT-C( )-ATQRLANFLHRSSF-Gly(Me)-A-Ile(Me)-LSSTEVGSETP-NH2 (Compd. 3)]
5,0.13 nM,{C20 diacid}-[γGlu]RCGTATCATERLAHFLQRSSF[Sar]A[NMeI]LSSTEVGSST[Hyp]-NH2 (disulfide 3-8; SMILES CC[C@H](C)[C@@H](C(=O)N[C@@H](CC(C)C)C(=O)N[C@@H](CO)C(=O)N[C@@H](CO)C(=O)N[C@H](C(=O)N[C@@H](CCC(=O)O)C(=O)N[C@H](C(=O)NCC(=O)N[C@@H](CO)C(=O)N[C@@H](CO)C(=O)N[C@H](C(=O)N1C[C@H](O)C[C@H]1C(N)=O)[C@@H](C)O)C(C)C)[C@@H](C)O)N(C)C(=O)[C@H](C)NC(=O)CN(C)C(=O)[C@H](Cc1ccccc1)NC(=O)[C@H](CO)NC(=O)[C@H](CO)NC(=O)[C@H](CCCNC(=N)N)NC(=O)[C@H](CCC(N)=O)NC(=O)[C@H](CC(C)C)NC(=O)[C@H](Cc1ccccc1)NC(=O)[C@H](Cc1c[nH]cn1)NC(=O)[C@H](C)NC(=O)[C@H](CC(C)C)NC(=O)[C@H](CCCNC(=N)N)NC(=O)[C@H](CCC(=O)O)NC(=O)[C@@H](NC(=O)[C@H](C)NC(=O)[C@@H]1CSSC[C@H](NC(=O)[C@H](CCCNC(=N)N)NC(=O)CC[C@H](NC(=O)CCCCCCCCCCCCCCCCCCC(=O)O)C(=O)O)C(=O)NCC(=O)N[C@@H]([C@@H](C)O)C(=O)N[C@@H](C)C(=O)N[C@@H]([C@@H](C)O)C(=O)N1)[C@@H](C)O) [[19CD]-isoGlu-R-C( )-GTAT-C( )-ATERLAHFLQRSSF-Gly(Me)-A-Ile(Me)-LSSTEVGSST-Hyp-NH2 (Compd. 28)]
6,0.12 nM,{C20 diacid}-[γGlu]RCGTATCATERLAHFLHRSSF[Sar]A[NMeI]LSSTEVGSETP-NH2 (disulfide 3-8; SMILES CC[C@H](C)[C@@H](C(=O)N[C@@H](CC(C)C)C(=O)N[C@@H](CO)C(=O)N[C@@H](CO)C(=O)N[C@H](C(=O)N[C@@H](CCC(=O)O)C(=O)N[C@H](C(=O)NCC(=O)N[C@@H](CO)C(=O)N[C@@H](CCC(=O)O)C(=O)N[C@H](C(=O)N1CCC[C@H]1C(N)=O)[C@@H](C)O)C(C)C)[C@@H](C)O)N(C)C(=O)[C@H](C)NC(=O)CN(C)C(=O)[C@H](Cc1ccccc1)NC(=O)[C@H](CO)NC(=O)[C@H](CO)NC(=O)[C@H](CCCNC(=N)N)NC(=O)[C@H](Cc1c[nH]cn1)NC(=O)[C@H](CC(C)C)NC(=O)[C@H](Cc1ccccc1)NC(=O)[C@H](Cc1c[nH]cn1)NC(=O)[C@H](C)NC(=O)[C@H](CC(C)C)NC(=O)[C@H](CCCNC(=N)N)NC(=O)[C@H](CCC(=O)O)NC(=O)[C@@H](NC(=O)[C@H](C)NC(=O)[C@@H]1CSSC[C@H](NC(=O)[C@H](CCCNC(=N)N)NC(=O)CC[C@H](NC(=O)CCCCCCCCCCCCCCCCCCC(=O)O)C(=O)O)C(=O)NCC(=O)N[C@@H]([C@@H](C)O)C(=O)N[C@@H](C)C(=O)N[C@@H]([C@@H](C)O)C(=O)N1)[C@@H](C)O) [[19CD]-isoGlu-R-C( )-GTAT-C( )-ATERLAHFLHRSSF-Gly(Me)-A-Ile(Me)-LSSTEVGSETP-NH2 (Compd. 26)]
